These results are taken from US20250059282A1.

The target in assay [1] is Cyno PD-L1-Fc (cynomolgus) (UniProt G7PSE7). Put plainly: ForteBio, IgG, avid.
The target in assay [2] is Cyno PD-L2-Fc (cynomolgus). Put plainly: ForteBio, IgG, avid.
In assay [3] the target is Mouse PD-L1-Fc (mouse) (UniProt Q9EP73). Put plainly: ForteBio, IgG, avid.
The target of assay [4] is Mouse PD-L2-Fc (mouse) (UniProt Q9WUL5). Briefly: ForteBio, IgG, avid. (Biolayer interferometry detects binding as a change in optical thickness at a sensor tip.)
For assay [5], the target named is Human PD-L1-HIS (human) (UniProt Q9NZQ7). Briefly: ForteBio, IgG, monovalent.
Assay [6] has as its target Human PD-L2-HIS (human) (UniProt Q9BQ51). Briefly: ForteBio, IgG, monovalent.

Human PD-L2-HIS (human), sequence (Q9BQ51 20-220): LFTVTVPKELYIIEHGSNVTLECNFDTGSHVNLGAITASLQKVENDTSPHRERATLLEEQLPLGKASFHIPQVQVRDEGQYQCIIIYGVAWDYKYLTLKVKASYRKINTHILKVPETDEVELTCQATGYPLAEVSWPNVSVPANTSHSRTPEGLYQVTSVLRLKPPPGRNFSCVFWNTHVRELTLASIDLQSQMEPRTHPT
Human PD-L1-HIS (human), sequence (Q9NZQ7 19-238 limits assumed): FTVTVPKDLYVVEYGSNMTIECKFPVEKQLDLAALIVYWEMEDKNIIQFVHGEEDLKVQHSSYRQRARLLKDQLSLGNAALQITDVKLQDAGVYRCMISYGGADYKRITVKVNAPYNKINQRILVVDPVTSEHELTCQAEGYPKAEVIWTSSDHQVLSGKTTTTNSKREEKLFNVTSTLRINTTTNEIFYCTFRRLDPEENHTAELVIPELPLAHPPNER
Mouse PD-L2-Fc (mouse), sequence (Q9WUL5 20-219 limits assumed): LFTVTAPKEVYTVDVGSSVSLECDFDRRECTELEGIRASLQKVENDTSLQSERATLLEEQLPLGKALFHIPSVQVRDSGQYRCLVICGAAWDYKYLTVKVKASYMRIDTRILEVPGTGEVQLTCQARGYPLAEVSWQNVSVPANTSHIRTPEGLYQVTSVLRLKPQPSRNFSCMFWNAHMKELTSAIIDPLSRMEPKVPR
Cyno PD-L2-Fc (cynomolgus), sequence (chain, as listed by the source): as the sequence (Q9BQ51 20-220) above, with V19A, P62S, S67L, V139I, P166H, T178A, H179Q, M194I counted along it
Cyno PD-L1-Fc (cynomolgus), sequence (G7PSE7 entry or part of it limits assumed): as the sequence (Q9NZQ7 19-238 limits assumed) above, with A33T, A34S, S62N, R68Q, Q82R, F173L, T185A, T192I, H215L counted along it
Mouse PD-L1-Fc (mouse), sequence (Q9EP73 19-239 limits assumed): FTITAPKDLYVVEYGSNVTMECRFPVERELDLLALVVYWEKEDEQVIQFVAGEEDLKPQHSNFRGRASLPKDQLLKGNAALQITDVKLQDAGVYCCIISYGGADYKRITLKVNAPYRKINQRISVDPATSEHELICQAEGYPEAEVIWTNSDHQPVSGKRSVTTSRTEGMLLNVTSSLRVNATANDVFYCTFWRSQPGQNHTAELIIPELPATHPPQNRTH

B1: BiPDL3-54 (antibody, part only; not given: light chain variable domain, V domains shown, part only)
VH: QVQLQQWGAGLLKPSETLSLTCAVYGGSLSGYPWSWIRQPPGKGLEWIGETDVSGWTDYNPSLKSRVTISVDTSKNQFSLKLSSVTAADTAVYYCARDGRRMGTPSFDIWGQGTMVTVSS
As for B1, the equilibrium dissociation constant (Kd) (usually the concentration at which binding is half-saturated) in assay [1] came to 0.442 nM; in assay [2] it was 0.621 nM; in assay [3], 2.97 nM; in assay [4] it was 0.694 nM; in assay [5], 15.5 nM; in assay [6] it was 2.2 nM.
